These results are taken from PMC8205142.

This experiment addresses recombinant venestatin (Strongyloides venezuelensis). The experiment can be described thus: ELISA; r-venestatin (4 ug/mL) coated on wells; RAGE or TLR4 (0-4 ug/mL) in buffer A (50 mM Tris-HCl pH 7, 10 mM NaCl, 5 mM CaCl2), ambient temperature, 1 h; detected with anti-RAGE or anti-TLR4 antibodies; KD by Scatchard plot. (ELISA stands for enzyme-linked immunosorbent assay.)

The Kd is the constant that tells how readily two partners part at equilibrium. Take “recombinant human RAGE (receptor for advanced glycation end products) (from UniProt Q15109 23-342)”: the Kd was 43.6 nM.
